For one data set, the system named is E. faecalis ATCC 29302. Put plainly: Minimum Inhibition Concentrations (MICs) Test. Type of data set: cell-based, Enterococcus Faecalis. To be noted: Enterococcus faecalis, ATCC29302.
The subject of another data set is E. faecalis ATCC 33186. Briefly: Minimum Inhibition Concentrations (MICs) Test. Type of data set: cell-based, Enterococcus Faecalis. As to conditions: Enterococcus faecalis, ATCC33186.
Another data set has as its system E. faecalis ATCC 51299. Put plainly: Minimum Inhibition Concentrations (MICs) Test. The data set is classed as cell-based, Enterococcus Faecalis. To be noted: Enterococcus faecalis, ATCC 51299 / VRE.
The next data set relates to E. faecalis ATCC 51559. Briefly: Minimum Inhibition Concentrations (MICs) Test. Type of data set: cell-based, Enterococcus Faecalis. To be noted: Enterococcus faecalis, ATCC 51559 / VRE.
Another data set deals with E. faecalis ATCC 700221. Put plainly: Minimum Inhibition Concentrations (MICs) Test. The data set is classed as cell-based, Enterococcus Faecalis. To be noted: Enterococcus faecalis, ATCC700221.
Another data set has as its system S. Aureus ATCC 29213. Put plainly: Minimum Inhibition Concentrations (MICs) Test. Type of data set: cell-based, Staphylococcus Aureus. To be noted: Staphylococcus aureus, ATCC29213.
The subject of a further data set is S. Aureus ATCC 700699. Briefly: Minimum Inhibition Concentrations (MICs) Test. Type of data set: cell-based, Staphylococcus Aureus. To be noted: Staphylococcus aureus, ATCC700699.
A further data set relates to E. faecalis (ATCC 51559). Put plainly: In vivo animal study, sepsis in mice. As to conditions: 10 mg/kg/dose i.v. twice a day, day 1 to day 3. Further details: species or system ICR female mice. As to the method: 12 ICR female mice with an average body weight of 27 g to 30 g were used in this experiment. Mice had free access to water and food at all time. Sepsis was induced in mice by intravenous (i.v.) injection of […] cfu/mouse of E. faecalis (ATCC 51559) on day 0. The mice were randomized into the following four treatment groups at the start of the experiment:
Each mouse received 10 mg/kg/dose of the medication by intravenous route, twice a day from day 1 to day 3, for a total of 6 doses. Mice were anesthetized and blood was taken from the orbital sinus on day 1, day 2, and day 3. The blood sample was diluted with PBS, plated on Brain Heart infusion agar (BHI agar; Difico, Detroit, Mich., USA) and cultured for colony formation unit.
Data were expressed as mean±SD and the statistical analysis was performed using SigmaStat®. Differences were considered to be significant if the P value was <0.05.

A further data set has as its system Dbv29. Briefly: Relative enzymatic activities of Dbv29 mutants. The data set is classed as biochemical, Nonomuraea sp. ATCC39727. To be noted: for Relative activity: relative to WT.

Where a chain is given by its changes, count along the chain named. Numbers in names are those of the source. ≈ marks a conversion by molar mass, not a printed value.

Take `CN[C@H](CC(C)C)C(=O)N[C@H]1C(=O)N[C@@H](CC(N)=O)C(=O)N[C@H]2C(=O)N[C@H]3C(=O)N[C@H](C(=O)N[C@H](C(=O)O)c4cc(O)cc(O)c4-c4cc3ccc4O)[C@H](O)c3ccc(c(Cl)c3)Oc3cc2cc(c3O[C@@H]2O[C@H](CO)[C@@H](O)[C@H](O)[C@H]2O[C@H]2C[C@](C)(N)[C@H](O)[C@H](C)O2)Oc2ccc(cc2Cl)[C@H]1O` [Compound 1, vancomycin]: the MIC (usually the smallest concentration in the dilution series that meets the test's criterion for growth inhibition) in the data set with E. faecalis ATCC 29302 was 1 µg/mL (≈ 0.69 µM); against E. faecalis ATCC 33186 it was 4 µg/mL (≈ 2.76 µM); against E. faecalis ATCC 51299, greater than 64 µg/mL; against E. faecalis ATCC 51559 it was greater than 32 µg/mL; against E. faecalis ATCC 700221, greater than 64 µg/mL; with S. Aureus ATCC 29213 it was 1 µg/mL (≈ 0.69 µM). The same molecule gave an MIC in the data set with S. Aureus ATCC 700699 of 16 µg/mL (≈ 11 µM). In the data set on E. faecalis (ATCC 51559), the “whole blood bacterial counts over the 3-day period” value is “suppressed”.

B1: W399A (protein)
chain: MTGGTGADAASAGASSTRPELRGERCLPPAGPVKVTPDDPRYLNLKLRGANSRFNGEPDYIHLVGSTQQVADAVEETVRTGKRVAVRSGGHCFEDFVDNPDVKVIIDMSLLTEIAYDPSMNAFLIEPGNTLSEVYEKLYLGWNVTIPGGVCGGVGVGGHICGGGYGPLSRQFGSVVDYLYAVEVVVVNKQGKARVIVATRERDDPHHDLWWAHTGGGGGNFGVVTKYWMRVPEDVGRNPERLLPKPPATLLTSTVTFDWAGMTEAAFSRLLRNHGEWYERNSGPDSPYTGLWSQLMIGNEVPGMGESGFMMPIQVDATRPDARRLLDAHIEAVIDGVPPAEVPEPIEQRWLASTPGRGGRGPASKTKAGYLRKRLTDRQIQAVYENMTHMDGIDYGAVALIGYGGKVNTVDPAATALPQRDAILKVNYITGWANPGNEAKHLTWVRKLYADVYAETGGVPVPNDVSDGAYINYPDSDLADPGLNTSGVPWHDLYYKGNHPRLRKVKAAYDPRNHFHHALSIRP
As to B1, in the data set on Dbv29, the “catalytic activity” value is on record as “no product was produced”.

B2: C161A (protein)
chain: B1 chain with C161A, A399W
For B2, the Relative activity in the data set on Dbv29 is on record as 0.84.

B3: R360E (protein)
chain: B1 chain with R360E, A399W
As to B3, the Relative activity in the data set on Dbv29 was found to be 0.76.

B4: Y428F (protein)
chain: B1 chain with A399W, Y428F
Molecule B4 displayed a Relative activity in the data set with Dbv29 of 1.00.

B5: Y403F (protein)
chain: B1 chain with A399W, Y403F
B5 showed a Relative activity in the data set on Dbv29 of 0.65.

B6: C151A (protein)
chain: B1 chain with C151A, A399W
For the molecule B6, in the data set on Dbv29, the “activity relative to WT” value amounted to 23% and the Relative activity amounted to 0.23.

B7: Y473F (protein)
chain: B1 chain with A399W, Y473F
B7 gave a Relative activity in the data set on Dbv29 of 0.23.

B8: W399F (protein)
chain: B1 chain with A399F
Take B8: in the data set on Dbv29, the “activity relative to WT” value is given as 15% and the Relative activity is 0.16.

B9: Y370F/Y403F (protein)
chain: B1 chain with Y370F, A399W, Y403F
Take B9: the Relative activity in the data set with Dbv29 is 0.05.

B10: Y370F (protein)
chain: B1 chain with Y370F, A399W
Turning to B10, the Relative activity with Dbv29 is given as 0.10.

B11: T366A (protein)
chain: B1 chain with T366A, A399W
B11: in the data set with Dbv29, the “activity relative to WT” value was 11% and the Relative activity was 0.11.

B12: N44A (protein)
chain: B1 chain with N44A, A399W
On to B12, for which, in the data set on Dbv29, the Relative activity is recorded as 0.87.

B13: S364R (protein)
chain: B1 chain with S364R, A399W
For B13, the Relative activity in the data set on Dbv29 is reported as 0.08.

B14: Y453F (protein)
chain: B1 chain with A399W, Y453F
The molecule B14 showed a Relative activity in the data set with Dbv29 of 0.82.

B15: Y428F/Y453F (protein)
chain: B1 chain with A399W, Y428F, Y453F
On to B15, for which, in the data set with Dbv29, the Relative activity stood at 1.08.

B16: R360L (protein)
chain: B1 chain with R360L, A399W
In the data set on Dbv29, B16 came in with a Relative activity of 0.23.

B17: Y165F/Y473F (protein)
chain: B1 chain with Y165F, A399W, Y473F
On to B17, for which the “catalytic activity” value with Dbv29 is reported as “total loss of catalytic activity”.

B18: R41A/N44A (protein)
chain: B1 chain with R41A, N44A, A399W
B18 displayed a Relative activity in the data set with Dbv29 of 0.59.

B19: I401A (protein)
chain: B1 chain with A399W, I401A
Regarding B19, the Relative activity in the data set with Dbv29 was found to be 0.09.

B20: R360L/T366E (protein)
chain: B1 chain with R360L, T366E, A399W
For the molecule B20, in the data set on Dbv29, the Relative activity came to 0.01.

B21: Y470F (protein)
chain: B1 chain with A399W, Y470F
Take B21: the Relative activity with Dbv29 was determined as 0.21.

B22: H91A/C151A (protein)
chain: B1 chain with H91A, C151A, A399W
With B22, in the data set on Dbv29, the “activity relative to WT” value is 5% and the Relative activity amounted to 0.05.

B23: I401W (protein)
chain: B1 chain with A399W, I401W
The molecule B23 came in with a Relative activity in the data set with Dbv29 of 0.02.

B24: S364K (protein)
chain: B1 chain with S364K, A399W
Molecule B24 showed a Relative activity with Dbv29 of 0.04.

B25: T366L (protein)
chain: B1 chain with T366L, A399W
In the case of B25, the Relative activity in the data set with Dbv29 was 0.13.

B26: H91A (protein)
chain: B1 chain with H91A, A399W
Take B26: in the data set on Dbv29, the “activity relative to WT” value is given as 11% and the Relative activity came out at 0.11.

B27: R41A (protein)
chain: B1 chain with R41A, A399W
With B27, the Relative activity with Dbv29 stood at 0.72.

B28: C26A (protein)
chain: B1 chain with C26A, A399W
The molecule B28 yielded a Relative activity in the data set with Dbv29 of 1.11.

B29: R360E/T366E (protein)
chain: B1 chain with R360E, T366E, A399W
For the molecule B29, the Relative activity with Dbv29 amounted to 0.03.

B30: T366E (protein)
chain: B1 chain with T366E, A399W
For the molecule B30, in the data set on Dbv29, the “activity relative to WT” value is recorded as 5% and the Relative activity was found to be 0.05.

B31: Y165W (protein)
chain: B1 chain with Y165W, A399W
In the data set on Dbv29, B31 displayed a Relative activity of 0.03.

B32: R360L/T366A (protein)
chain: B1 chain with R360L, T366A, A399W
Molecule B32 yielded a Relative activity in the data set with Dbv29 of 0.03.

B33: Y165F (protein)
chain: B1 chain with Y165F, A399W
Take B33: the Relative activity with Dbv29 worked out at 0.70.

B34: C92A (protein)
chain: B1 chain with C92A, A399W
B34: in the data set with Dbv29, the Relative activity is reported as 0.95.

(Values after patent publication US8951961B2, “Structural and mechanistic basis for novel compound biosynthesis using 4-electron hexose oxidase” (Academia Sinica, priority 2009, dated 2015).)
